Test results taken from US20130177579A1 (BIOALLIANCE C V, published 2013).

B1: antibody 55-31 (antibody, mouse IgM, V domains shown)
VH: QVQLQQPGAELVKPGTSVKLSCKASGYNFTSYWINWVKLRPGQGLEWIGDIYPGSGSTNYNEKFKSKATLTVDTSSSTAYMQLSSLASEDSALYYCARSAYRYDWFAYWGQGTLVTVSA
VL: DIQMTQSPASLSVSVGETVTITCRASENIYSNLAWYQQKQGKSPQLLVYAATNLADGVPSRFSGSGSGTQYSLKINSLQSEDFGSYYCQHFWGTPYTFGGGTKLEIKR
notes: Mouse IgM, kappa from a hybridoma; tested as hybridoma culture supernatant
B2: antibody 6-90 (antibody, mouse IgM, V domains shown)
VH: EVELQQFGIEMVKPGASVKISCKASGYIFTDYHMDWVRQSHGKSLEWIGDIDPKYDRVTYNQKFKGKASLTADKSSSTAYMELRSLTSEDTAVYYCAKTGAYGDYLAYWGQGTLVTVSA
VL: DLVMTQTPLSLPVSLGDQASISCRSSQSLVHSDGNTYFYWYLQKPGQSPKLLIYKVSNRFSGVPDRFSAGGSGTYFTLKISRVEAEDLGVYFCSQTTHFPPTFGGGTKLEIKR
notes: as for B1

How the values were obtained:
[1] = target: T1, human transferrin receptor expressed by normal human cells (RBC, PMN, lymphocytes, monocytes, platelets, … (human, UniProt P02786 1-760)); experiment: FACS, PMN, donor D102, 1x
T1 construct: The assay is whole-cell FACS on normal donor cells; also called TfR on normal cells
Method: (§1) Preparation of PBMC and PMN: The whole blood was diluted with an equal volume of PBS and mixed with 1/10 volume of 15% Dextran solution. […] After centrifugation at 2200 rpm for 15 min (rotor: SORVALL, PN11788 and centrifuge: SORVALL, RT7), PBMC concentrated in the interface, were collected and washed with large volumes of FACS buffer (2% FBS in PBS) for future use. The PMN-rich pellet was collected, from which residual RBC was removed by hypotonic lysis in 0.2% NaCl.
(§2) 1×10⁵ cells were seeded in each well of a v-bottomed 96-well plate and incubated with 50 μl of hybridoma culture supernatant at 1× and 10× dilution, or isotype control antibody mouse IgM, κ (BD™, Cat. No. 557275) at concentration of 1 μg/ml. A 300× dilution of human cell hyper-immune serum was used as binding positive control for all cell types. PE-conjugated anti-human CD41a (Southern Biotech™, Cat. No. 9391-09) was used as a positive control for staining human platelets. Anti-sialyl Lewis x antibody (Millipore™, Cat. No. MAB2096) was used as a positive control for staining human PMN. Anti-human CD31 (Hycult™, Cat. No. HM2039) was used as a positive control for staining HUVEC. After 30 minutes incubation at 4° C., cells were washed twice with 200 μl FACS buffer (1×PBS containing 1% FBS), stained with 50 μl of 1 μg/ml goat F(ab′)2-anti-mouse IgG(H+L)-PE (Southern Biotech™, Cat. No. 1032-09) or 1 μg/ml goat F(ab′)2-anti-mouse IgM(H+L)-PE (Southern Biotech™, Cat. No. 1022-09) in FACS buffer. After 30 minutes of incubation at 4° C., cells were washed twice with FACS buffer and analyzed by flow cytometry (BD LSR, BD Life Sciences).

[2] = target: T1, human transferrin receptor expressed by …; experiment: FACS, PMN, donor D016, 1/10x
Method: as §1, §2

[3] = target: T1, human transferrin receptor expressed by …; experiment: FACS, HUVEC, 1x
Method: (§3) The hyper-immuned serum (Hyp-serum) or the corresponding cell marker antibodies for certain cell types were included as positive controls.
as §2

[4] = target: T1, human transferrin receptor expressed by …; experiment: FACS, platelets, donor D016, 1/10x
Method: as §3, §2

[5] = target: T2, human transferrin receptor expressed by Jurkat cells (human, UniProt P02786 1-760); experiment: FACS, Jurkat cells, 1/10X
T2 construct: Endogenous receptor on Jurkat cells; MEM189 was the positive control; also called TfR on T leukemia cell line Jurkat

[6] = target: T1, human transferrin receptor expressed by …; experiment: FACS, lymphocytes, donor D005, 1x
Method: as §3, §2

[7] = target: T1, human transferrin receptor expressed by …; experiment: FACS, PMN, donor D014, 1/10x
Method: as §1, §2

[8] = target: T1, human transferrin receptor expressed by …; experiment: FACS, HUVEC, 1/10x
Method: as §3, §2

[9] = target: T1, human transferrin receptor expressed by …; experiment: FACS, RBC, donor D102, 1/10x
Method: as §3, §2

[10] = target: T1, human transferrin receptor expressed by …; experiment: FACS, lymphocytes, donor D102, 1x
Method: as §1, §2

[11] = target: T1, human transferrin receptor expressed by …; experiment: FACS, RBC, donor D016, 1x
Method: as §3, §2

[12] = target: human transferrin receptor expressed by nonhematopoietic cancer cells (human) (UniProt P02786); experiment: FACS, SU.86.86 cells, 1/5X
[13] = target: T1, human transferrin receptor expressed by …; experiment: FACS, lymphocytes, donor D014, 1x
Method: as §1, §2

[14] = target: human transferrin receptor expressed by nonhematopoietic cancer cells (human) (UniProt P02786); experiment: cell-based or functional assay
[15] = target: T1, human transferrin receptor expressed by …; experiment: FACS, monocytes, donor D005, 1x
Method: as §1, §2

[16] = target: T1, human transferrin receptor expressed by …; experiment: FACS, lymphocytes, donor D005, 1/10x
Method: as §1, §2

[17] = target: T1, human transferrin receptor expressed by …; experiment: FACS, platelets, donor D016, 1x
Method: as §3, §2

[18] = target: T1, human transferrin receptor expressed by …; experiment: FACS, RBC, donor D016, 1/10x
Method: as §3, §2

[19] = target: human transferrin receptor expressed by nonhematopoietic cancer cells (human) (UniProt P02786); experiment: FACS, MDA-MB-453 cells, 1/5X

T1 sequence (P02786 whole entry G142S): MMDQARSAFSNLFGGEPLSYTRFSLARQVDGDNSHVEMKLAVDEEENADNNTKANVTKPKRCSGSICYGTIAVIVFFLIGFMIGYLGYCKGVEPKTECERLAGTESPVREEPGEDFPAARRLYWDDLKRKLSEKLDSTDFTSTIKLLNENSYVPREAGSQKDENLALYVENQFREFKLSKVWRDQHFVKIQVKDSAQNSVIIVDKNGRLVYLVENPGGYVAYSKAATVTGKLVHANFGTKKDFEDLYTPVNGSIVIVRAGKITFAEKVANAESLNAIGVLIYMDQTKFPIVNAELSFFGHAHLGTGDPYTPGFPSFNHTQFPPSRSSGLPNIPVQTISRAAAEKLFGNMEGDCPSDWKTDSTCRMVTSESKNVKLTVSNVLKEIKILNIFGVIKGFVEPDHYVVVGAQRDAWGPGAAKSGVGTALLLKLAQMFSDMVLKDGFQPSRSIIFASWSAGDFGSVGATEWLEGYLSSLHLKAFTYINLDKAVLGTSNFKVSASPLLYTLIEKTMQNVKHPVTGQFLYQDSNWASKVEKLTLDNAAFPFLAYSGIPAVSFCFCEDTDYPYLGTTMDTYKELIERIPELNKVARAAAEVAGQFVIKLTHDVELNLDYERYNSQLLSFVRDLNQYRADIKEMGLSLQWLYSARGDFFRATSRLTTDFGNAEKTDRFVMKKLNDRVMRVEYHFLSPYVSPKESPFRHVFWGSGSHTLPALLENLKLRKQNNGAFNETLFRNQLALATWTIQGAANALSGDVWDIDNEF
Chain of human transferrin receptor expressed by nonhematopoietic cancer cells (human) (P02786 whole entry G142S): as above
T2 sequence (P02786 whole entry G142S): as above

Binder | % positive cell binding [1] [%] | % positive cell binding [2] [%] | % positive cell binding [3] [%] | % positive cell binding [4] [%] | % of gated cells [5] [%] | % positive cell binding [6] [%] | % positive cell binding [7] [%] | % positive cell binding [8] [%] | % positive cell binding [9] [%] | % positive cell binding [10] [%] | % positive cell binding [11] [%] | MFI [12] [MFI] | % positive cell binding [13] [%] | % positive cell binding [15] [%] | % positive cell binding [16] [%] | % positive cell binding [17] [%] | % positive cell binding [18] [%] | MFI [19] [MFI] | other results
B1 | 1 | < 1 | 2 | < 1 | < 1 | < 1 | < 1 | 3 | < 1 | < 1 | 1 | 96 | 1 | 4 | 2 | < 1 | 1 | 65 | percentage of Annexin V positive and/or PI positive cells; DU145; 1/2X (IgM 19.5) [14]: 31%; percentage of Annexin V positive and/or PI positive cells; DU145; 1/6X (IgM 19.5) [14]: 35.4%; percentage of Annexin V positive and/or PI positive cells; DU145; 1/18X (IgM 19.5) [14]: 23.6%
B2 | 1 | < 1 | 1 | < 1 | < 1 | < 1 | < 1 | 1 | < 1 | < 1 | 1 | 2940 | 1 | 2 | 3 | < 1 | 1 | 141 | percentage of Annexin V positive and/or PI positive cells; COLO205; 1/2X (IgM 19.1) [14]: 50.9%; percentage of Annexin V positive and/or PI positive cells; COLO205; 1/6X (IgM 19.1) [14]: 42.2%; percentage of Annexin V positive and/or PI positive cells; COLO205; 1/18X (IgM 19.1) [14]: 22.9%; percentage of Annexin V positive and/or PI positive cells; DLD1; 1/2X (IgM 24.3) [14]: 50.6%; percentage of Annexin V positive and/or PI positive cells; DLD1; 1/6X (IgM 24.3) [14]: 42.3%; percentage of Annexin V positive and/or PI positive cells; DLD1; 1/18X (IgM 24.3) [14]: 38.9%; percentage of Annexin V positive and/or PI positive cells; H358; 1/2X (IgM 31.8) [14]: 50.7%; percentage of Annexin V positive and/or PI positive cells; H358; 1/6X (IgM 31.8) [14]: 49%; percentage of Annexin V positive and/or PI positive cells; H358; 1/18X (IgM 31.8) [14]: 46.9%; percentage of Annexin V positive and/or PI positive cells; Panc 02.03B; 1/2X (IgM 19.0) [14]: 46.7%; percentage of Annexin V positive and/or PI positive cells; Panc 02.03B; 1/6X (IgM 19.0) [14]: 28.7%; percentage of Annexin V positive and/or PI positive cells; Panc 02.03B; 1/18X (IgM 19.0) [14]: 24.5%; percentage of Annexin V positive and/or PI positive cells; SNU-16; 1/2X (IgM 30.0) [14]: 40.2%; percentage of Annexin V positive and/or PI positive cells; SNU-16; 1/6X (IgM 30.0) [14]: 37.2%; percentage of Annexin V positive and/or PI positive cells; SNU-16; 1/18X (IgM 30.0) [14]: 34.8%
